# B1: GDNF (protein, UniProt P39905 78-211, looked up)
# Glial cell line-derived …: SPDKQMAVLPRRERNRQAAAANPENSRGKGRRGQRGKNRGCVLTAIHLNVTDLGLGYETKEELIFRYCSGSCDAAETTYDKILKNLSRNRRLVSDKVGQACCRPIAFDDDLSFLDDNLVYHILRKHSAKRCGCI
# Test system: six V600E BRAF melanoma cell lines
# Test: Screening of recombinant RTK ligands for ability to confer resistance to BRAFi (PLX4720) or MEKi (PD184352) (Table 4)
# Format: cell-based, human
# Set-up: ability of recombinant RTK ligand to confer resistance / ability of recombinant RTK ligand to confer resistance (screening value): scale not given here
# Method in brief: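 Six V600E BRAF melanoma lines treated with PLX4720 or PD184352 after addition of 22 recombinant RTK ligands, scored for drug resistance. Activation of selected RTKs confirmed by western blotting and high-throughput tyrosine kinase phosphorylation profiling.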
molecule,measurement,setting,value
B1,ability of recombinant RTK ligand to confer resistance,"A2058, PD184352 - 1 uM, ligand 0.4 ng/ml",0.98
same,ability of recombinant RTK ligand to confer resistance,"A2058, PD184352 - 1 uM, ligand 1.6 ng/ml",1.03
same,ability of recombinant RTK ligand to confer resistance,"A2058, PD184352 - 1 uM, ligand 6.25 ng/ml",1.00
same,ability of recombinant RTK ligand to confer resistance,"A2058, PD184352 - 1 uM, ligand 25 ng/ml",0.93
same,ability of recombinant RTK ligand to confer resistance,"A2058, PD184352 - 1 uM, ligand 100 ng/ml",0.92
same,ability of recombinant RTK ligand to confer resistance,"A2058, PLX4720 - 2 uM, ligand 0.4 ng/ml",0.97
same,ability of recombinant RTK ligand to confer resistance,"A2058, PLX4720 - 2 uM, ligand 1.6 ng/ml",0.97
same,ability of recombinant RTK ligand to confer resistance,"A2058, PLX4720 - 2 uM, ligand 6.25 ng/ml",0.98
same,ability of recombinant RTK ligand to confer resistance,"A2058, PLX4720 - 2 uM, ligand 25 ng/ml",0.94
same,ability of recombinant RTK ligand to confer resistance,"A2058, PLX4720 - 2 uM, ligand 100 ng/ml",0.97
same,ability of recombinant RTK ligand to confer resistance,"C32, PD184352 - 1 uM, ligand 0.4 ng/ml",1.08
same,ability of recombinant RTK ligand to confer resistance,"C32, PD184352 - 1 uM, ligand 1.6 ng/ml",1.13
same,ability of recombinant RTK ligand to confer resistance,"C32, PD184352 - 1 uM, ligand 6.25 ng/ml",1.03
same,ability of recombinant RTK ligand to confer resistance,"C32, PD184352 - 1 uM, ligand 25 ng/ml",0.96
same,ability of recombinant RTK ligand to confer resistance,"C32, PD184352 - 1 uM, ligand 100 ng/ml",0.94
same,ability of recombinant RTK ligand to confer resistance,"C32, PLX4720 - 2 uM, ligand 0.4 ng/ml",1.04
same,ability of recombinant RTK ligand to confer resistance,"C32, PLX4720 - 2 uM, ligand 1.6 ng/ml",1.11
same,ability of recombinant RTK ligand to confer resistance,"C32, PLX4720 - 2 uM, ligand 6.25 ng/ml",1.03
same,ability of recombinant RTK ligand to confer resistance,"C32, PLX4720 - 2 uM, ligand 25 ng/ml",0.91
same,ability of recombinant RTK ligand to confer resistance,"C32, PLX4720 - 2 uM, ligand 100 ng/ml",0.94
same,ability of recombinant RTK ligand to confer resistance,"Colo 829, PD184352 - 1 uM, ligand 0.4 ng/ml",0.95
same,ability of recombinant RTK ligand to confer resistance,"Colo 829, PD184352 - 1 uM, ligand 1.6 ng/ml",0.96
same,ability of recombinant RTK ligand to confer resistance,"Colo 829, PD184352 - 1 uM, ligand 6.25 ng/ml",0.96
same,ability of recombinant RTK ligand to confer resistance,"Colo 829, PD184352 - 1 uM, ligand 25 ng/ml",1.07
same,ability of recombinant RTK ligand to confer resistance,"Colo 829, PD184352 - 1 uM, ligand 100 ng/ml",0.98
same,ability of recombinant RTK ligand to confer resistance,"Colo 829, PLX4720 - 2 uM, ligand 0.4 ng/ml",1.00
same,ability of recombinant RTK ligand to confer resistance,"Colo 829, PLX4720 - 2 uM, ligand 1.6 ng/ml",1.00
same,ability of recombinant RTK ligand to confer resistance,"Colo 829, PLX4720 - 2 uM, ligand 6.25 ng/ml",0.96
same,ability of recombinant RTK ligand to confer resistance,"Colo 829, PLX4720 - 2 uM, ligand 25 ng/ml",1.09
same,ability of recombinant RTK ligand to confer resistance,"Colo 829, PLX4720 - 2 uM, ligand 100 ng/ml",1.00
same,ability of recombinant RTK ligand to confer resistance,"G-361, PD184352 - 1 uM, ligand 0.4 ng/ml",1.00
same,ability of recombinant RTK ligand to confer resistance,"G-361, PD184352 - 1 uM, ligand 1.6 ng/ml",0.94
same,ability of recombinant RTK ligand to confer resistance,"G-361, PD184352 - 1 uM, ligand 6.25 ng/ml",1.04
same,ability of recombinant RTK ligand to confer resistance,"G-361, PD184352 - 1 uM, ligand 25 ng/ml",0.92
same,ability of recombinant RTK ligand to confer resistance,"G-361, PD184352 - 1 uM, ligand 100 ng/ml",0.95
same,ability of recombinant RTK ligand to confer resistance,"G-361, PLX4720 - 2 uM, ligand 0.4 ng/ml",0.94
same,ability of recombinant RTK ligand to confer resistance,"G-361, PLX4720 - 2 uM, ligand 1.6 ng/ml",0.94
same,ability of recombinant RTK ligand to confer resistance,"G-361, PLX4720 - 2 uM, ligand 6.25 ng/ml",0.93
same,ability of recombinant RTK ligand to confer resistance,"G-361, PLX4720 - 2 uM, ligand 25 ng/ml",0.87
same,ability of recombinant RTK ligand to confer resistance,"G-361, PLX4720 - 2 uM, ligand 100 ng/ml",0.79
same,ability of recombinant RTK ligand to confer resistance,"SK-MEL-5, PD184352 - 1 uM, ligand 0.4 ng/ml",0.99
same,ability of recombinant RTK ligand to confer resistance,"SK-MEL-5, PD184352 - 1 uM, ligand 1.6 ng/ml",0.89
same,ability of recombinant RTK ligand to confer resistance,"SK-MEL-5, PD184352 - 1 uM, ligand 6.25 ng/ml",1.03
same,ability of recombinant RTK ligand to confer resistance,"SK-MEL-5, PD184352 - 1 uM, ligand 25 ng/ml",0.94
same,ability of recombinant RTK ligand to confer resistance,"SK-MEL-5, PD184352 - 1 uM, ligand 100 ng/ml",0.93
same,ability of recombinant RTK ligand to confer resistance,"SK-MEL-5, PLX4720 - 2 uM, ligand 0.4 ng/ml",1.04
same,ability of recombinant RTK ligand to confer resistance,"SK-MEL-5, PLX4720 - 2 uM, ligand 1.6 ng/ml",0.71
same,ability of recombinant RTK ligand to confer resistance,"SK-MEL-5, PLX4720 - 2 uM, ligand 6.25 ng/ml",1.00
same,ability of recombinant RTK ligand to confer resistance,"SK-MEL-5, PLX4720 - 2 uM, ligand 25 ng/ml",1.01
same,ability of recombinant RTK ligand to confer resistance,"SK-MEL-5, PLX4720 - 2 uM, ligand 100 ng/ml",1.08
same,ability of recombinant RTK ligand to confer resistance,"SK-MEL-28, PD184352 - 1 uM, ligand 0.4 ng/ml",0.99
same,ability of recombinant RTK ligand to confer resistance,"SK-MEL-28, PD184352 - 1 uM, ligand 1.6 ng/ml",1.03
same,ability of recombinant RTK ligand to confer resistance,"SK-MEL-28, PD184352 - 1 uM, ligand 6.25 ng/ml",1.02
same,ability of recombinant RTK ligand to confer resistance,"SK-MEL-28, PD184352 - 1 uM, ligand 25 ng/ml",0.92
same,ability of recombinant RTK ligand to confer resistance,"SK-MEL-28, PD184352 - 1 uM, ligand 100 ng/ml",0.96
same,ability of recombinant RTK ligand to confer resistance,"SK-MEL-28, PLX4720 - 2 uM, ligand 0.4 ng/ml",1.04
same,ability of recombinant RTK ligand to confer resistance,"SK-MEL-28, PLX4720 - 2 uM, ligand 1.6 ng/ml",0.91
same,ability of recombinant RTK ligand to confer resistance,"SK-MEL-28, PLX4720 - 2 uM, ligand 6.25 ng/ml",1.05
same,ability of recombinant RTK ligand to confer resistance,"SK-MEL-28, PLX4720 - 2 uM, ligand 25 ng/ml",0.97
same,ability of recombinant RTK ligand to confer resistance,"SK-MEL-28, PLX4720 - 2 uM, ligand 100 ng/ml",1.01
